Experimental data reported in the supplement of paper PMC11246515.
± gives the standard deviation of the averaged measurements.

Test: total protein half-life in vivo (active degradation + dilution); higher = more stable protein
[1] = E. coli NCM3722 delta-clpP delta-lon delta-hslV, growth: N-lim chemostat, doubling time 6 h
[2] = E. coli NCM3722 delta-clpP, growth: N-lim chemostat, doubling time 6 h
[3] = E. coli NCM3722 delta-hslV, growth: N-lim chemostat, doubling time 6 h
[4] = E. coli NCM3722 delta-lon, growth: N-lim chemostat, doubling time 6 h
[5] = E. coli NCM3722 delta-smpB, growth: N-lim chemostat, doubling time 6 h
[6] = wild type E. coli NCM3722, growth: C-lim chemostat, doubling time 3 h
[7] = wild type E. coli NCM3722, growth: C-lim chemostat, doubling time 6 h
[8] = wild type E. coli NCM3722, growth: C-lim chemostat, doubling time 12 h
[9] = wild type E. coli NCM3722, growth: N-lim chemostat, doubling time 6 h
[10] = wild type E. coli NCM3722, growth: N-lim chemostat, doubling time 12 h
[11] = wild type E. coli NCM3722, growth: P-lim chemostat, doubling time 6 h
[12] = wild type E. coli NCM3722, growth: P-lim chemostat, doubling time 12 h

METRREERIGQLLQELKRSDKLHLKDAAALLGVSEMTIRRDLNNHSAPVVLLGGYIVLEPRSASHYLLSDQKSRLVEEKRRAAKLAATLVEPDQTLFFDCGTTTPWIIEAIDNEIPFTAVCYSLNTFLALKEKPHCRAFLCGGEFHASNAIFKPIDFQQTLNNFCPDIAFYSAAGVHVSKGATCFNLEELPVKHWAMSMAQKHVLVVDHSKFGKVRPARMGDLKRFDIVVSDCCPEDEYVKYAQTQRIKLMY [P0ACK5]
total protein half-life in vivo [1]: 6.81 ± 0.62 h | total protein half-life in vivo [2]: 6.08 ± 0.73 h | total protein half-life in vivo [3]: 6.59 ± 0.9 h | total protein half-life in vivo [4]: 6.9 ± 1.5 h | total protein half-life in vivo [5]: 5.02 ± 0.12 h | total protein half-life in vivo [6]: 2.74 h | total protein half-life in vivo [7]: 6.23 ± 0.15 h | total protein half-life in vivo [8]: 9.99 ± 0.58 h | total protein half-life in vivo [9]: 5.81 ± 0.078 h | total protein half-life in vivo [10]: 10.57 ± 0.023 h | total protein half-life in vivo [11]: 5.99 ± 0.49 h

METTQTSTIASKDSRSAWRKTDTMWMLGLYGTAIGAGVLFLPINAGVGGMIPLIIMAILAFPMTFFAHRGLTRFVLSGKNPGEDITEVVEEHFGIGAGKLITLLYFFAIYPILLVYSVAITNTVESFMSHQLGMTPPPRAILSLILIVGMMTIVRFGEQMIVKAMSILVFPFVGVLMLLALYLIPQWNGAALETLSLDTASATGNGLWMTLWLAIPVMVFSFNHSPIISSFAVAKREEYGDMAEQKCSKILAFAHIMMVLTVMFFVFSCVLSLTPADLAAAKEQNISILSYLANHFNAPVIAWMAPIIAIIAITKSFLGHYLGAREGFNGMVIKSLRGKGKSIEINKLNRITALFMLVTTWIVATLNPSILGMIETLGGPIIAMILFLMPMYAIQKVPAMRKYSGHISNVFVVVMGLIAISAIFYSLFS [P0AAD6]
total protein half-life in vivo [3]: 0.951 h | total protein half-life in vivo [6]: 1.85 h | total protein half-life in vivo [7]: 5.62 ± 2.4 h | total protein half-life in vivo [8]: 2.71 h | total protein half-life in vivo [11]: 1.58 h | total protein half-life in vivo [12]: 3.86 ± 0.51 h

METVFDALKAMGKATSIELAARLDISREEVLNELWELKKAGFVDKSAYTWRVADNNVQQEQPAQAELPEEITTATVAKISECDLTATIEQRGPQTADELATLFGTTSRKVASTLAMAISKGRLIRVNQGGKFRYCIPGDNLPAEPKAASVSPLWLSASSSACHGVLIITVITPSPTKNSATKMPEN
total protein half-life in vivo [1]: 5.08 ± 0.26 h | total protein half-life in vivo [5]: 1.14 h | total protein half-life in vivo [6]: 1.42 h

MEYFDMRKMSVNLWRNAAGETREICTFPPAKRDFYWRASIASIAANGEFSLFPGMERIVTLLEGGEMLLESADRFNHTLKPFQPFAFAADQVVKAKLTAGQMSMDFNIMTRLDVCKAKVRIAERTFTTFGSRGGVVFVINGAWQLGDKLLTTDQGACWFDGRHTLRLLQPQGKLLFSEINWLAGHSPDQVQ
total protein half-life in vivo [6]: 0.307 h

MEYKDPMHELLSSLEQIVFKDETQKITLTHRTTSCTEIEQLRKGTGLKIDDFARVLGVSVAMVKEWESRRVKPSSAELKLMRLIQANPALSKQLME [P0A9V5]
total protein half-life in vivo [2]: 0.508 ± 0.1 h | total protein half-life in vivo [4]: 0.337 h | total protein half-life in vivo [5]: 0.409 h | total protein half-life in vivo [9]: 0.277 h

MFAEYGVLNYWTYLVGAIFIVLVPGPNTLFVLKNSVSSGMKGGYLAACGVFIGDAVLMFLAWAGVATLIKTTPILFNIVRYLGAFYLLYLGSKILYATLKGKNSEAKSDEPQYGAIFKRALILSLTNPKAILFYVSFFVQFIDVNAPHTGISFFILAATLELVSFCYLSFLIISGAFVTQYIRTKKKLAKVGNSLIGLMFVGFAARLATLQS
total protein half-life in vivo [3]: 4.19 ± 0.057 h | total protein half-life in vivo [4]: 5.03 ± 0.45 h | total protein half-life in vivo [6]: > 4 h | total protein half-life in vivo [10]: 8.29 h

MFALCDVNAFYASCETVFRPDLWGKPVVVLSNNDGCVIARNAEAKALGVKMGDPWFKQKDLFRRCGVVCFSSNYELYADMSNRVMSTLEELSPRVEIYSIDEAFCDLTGVRNCRDLTDFGREIRATVLQRTHLTVGVGIAQTKTLAKLANHAAKKWQRQTGGVVDLSNLERQRKLMSALPVDDVWGIGRRISKKLDAMGIKTVLDLADTDIRFIRKHFNVVLERTVRELRGEPCLQLEEFAPTKQEIICSRSFGERITDYPSMRQAICSYAARAAEKLRSEHQYCRFISTFIKTSPFALNEPYYGNSASVKLLTPTQDSRDIINAATRSLDAIWQAGHRYQKAGVMLGDFFSQGVAQLNLFDDNAPRPGSEQLMTVMDTLNAKEGRGTLYFAGQGIQQQWQMKRAMLSPRYTTRSSDLLRVK
total protein half-life in vivo [1]: 5.93 h

MFDFASYHRAATLADAINLLADNPQAKLLAGGTDVLIQLHHHNDRYRHIVDIHNLAELRGITLAEDGSLRIGSATTFTQLIEDPITQRHLPALCAAATSIAGPQIRNVATYGGNICNGATSADSATPTLIYDAKLEIHSPRGVRFVPINGFHTGPGKVSLEHDEILVAFHFPPQPKEHAGSAHFKYAMRDAMDISTIGCAAHCRLDNGNFSELRLAFGVAAPTPIRCQHAEQTAQNAPLNLQTLEAISESVLQDVAPRSSWRASKEFRLHLIQTMTKKVISEAVAAAGGKLQ
total protein half-life in vivo [1]: 4.54 ± 1.2 h | total protein half-life in vivo [2]: 2.5 ± 0.1 h | total protein half-life in vivo [3]: 3.19 h | total protein half-life in vivo [4]: 3.61 ± 0.29 h | total protein half-life in vivo [5]: 2.379 ± 0.0096 h | total protein half-life in vivo [6]: 2.25 ± 0.11 h | total protein half-life in vivo [7]: 4.84 ± 0.91 h | total protein half-life in vivo [8]: 6.07 ± 0.36 h | total protein half-life in vivo [9]: 2.52 ± 0.089 h | total protein half-life in vivo [10]: 4 h | total protein half-life in vivo [11]: 4.56 ± 0.36 h | total protein half-life in vivo [12]: 9.6 ± 1.6 h

MFDIGFSELLLVFIIGLVVLGPQRLPVAVKTVAGWIRALRSLATTVQNELTQELKLQEFQDSLKKVEKASLTNLTPELKASMDELRQAAESMKRSYVANDPEKASDEAHTIHNPVVKDNEAAHEGVTPAAAQTQASSPEQKPETTPEPVVKPAADAEPKTAAPSPSSSDKP
total protein half-life in vivo [1]: 4.29 ± 0.055 h | total protein half-life in vivo [2]: 5.27 ± 1.5 h | total protein half-life in vivo [3]: 5.04 ± 0.61 h | total protein half-life in vivo [4]: 3.92 ± 0.51 h | total protein half-life in vivo [5]: 4.49 ± 0.26 h | total protein half-life in vivo [6]: 2.57 ± 0.12 h | total protein half-life in vivo [7]: 4.41 ± 0.55 h | total protein half-life in vivo [8]: 7 ± 1.1 h | total protein half-life in vivo [9]: 4.65 ± 0.15 h | total protein half-life in vivo [10]: 8.87 ± 1.3 h | total protein half-life in vivo [11]: 4.27 ± 0.49 h | total protein half-life in vivo [12]: 7.92 ± 0.28 h

MFDIGVNLTSSQFAKDRDDVVACAFDAGVNGLLITGTNLRESQQAQKLARQYSSCWSTAGVHPHDSSQWQAATEEAIIELAAQPEVVAIGECGLDFNRNFSTPEEQERAFVAQLRIAADLNMPVFMHCRDAHERFMTLLEPWLDKLPGAVLHCFTGTREEMQACVAHGIYIGITGWVCDERRGLELRELLPLIPAEKLLIETDAPYLLPRDLTPKPSSRRNEPAHLPHILQRIAHWRGEDAAWLAATTDANVKTLFGIAF
total protein half-life in vivo [1]: 5.07 ± 0.43 h | total protein half-life in vivo [2]: 4.32 ± 0.31 h | total protein half-life in vivo [4]: 5.25 ± 0.68 h | total protein half-life in vivo [5]: 3.97 ± 0.48 h | total protein half-life in vivo [6]: 2.67 h | total protein half-life in vivo [7]: 5.44 ± 0.34 h | total protein half-life in vivo [8]: 8.95 ± 0.15 h | total protein half-life in vivo [9]: 5.25 ± 1 h | total protein half-life in vivo [10]: 8.13 ± 1.8 h | total protein half-life in vivo [11]: 4.15 ± 0.38 h | total protein half-life in vivo [12]: 9.01 ± 0.23 h
